Assay [1] has as its target T1, TBD-1 wt.
T1 construct: Fab; the heavy chain entry is VH-CH1; also called wild-type anti-TROP2 Fab (hRS7); TROP2 Fab
The assay is described as follows: competition ELISA, peptide vs Fab binding to captured biotin-TROP2.

The target in assay [2] is T2, TBD-22 (HC D109A).
T2 construct: Fab; also called HC D109A mutant
Described as above.

The target in assay [3] is T3, TBD-17 (HC S104A).
T3 construct: Fab; also called HC S104A mutant
The description is as above.

In assay [4] the target is T4, TBD-6 (LC I93A).
T4 construct: Fab; also called LC I93A mutant
The assay is described as above.

Assay [5] concerns the target T5, TBD-11 (HC R98A).
T5 construct: Fab; also called HC R98A mutant
The description is as above.

Assay [6] concerns the target T6, TBD-21 (HC F108A).
T6 construct: Fab; also called HC F108A mutant
The assay is described as above.

Assay [7] addresses T1, TBD-1 wt. The assay is described as above. This is another data set of the same source.
In assay [8] the target is T2, TBD-22 (HC D109A). Described as above. The source holds these as a separate data set.
The target in assay [9] is T3, TBD-17 (HC S104A). Described as above. This is another data set of the same source.
Assay [10] concerns the target T4, TBD-6 (LC I93A). Described as above. This is another data set of the same source.
In assay [11] the target is T5, TBD-11 (HC R98A). The assay is described as above. The source holds these as a separate data set.
Assay [12] deals with T6, TBD-21 (HC F108A). The assay is described as above. The source holds these as a separate data set.
The target in assay [13] is T7, TBD-21 (HC F108A).
T7 construct: anti-TROP2 Fab, CDR3 HC alanine mutant
The assay is described as follows: competition ELISA, Fab on captured TROP2. For orientation: An ELISA detects its analyte on a solid surface through an enzyme-linked reagent.

Assay [14] addresses T8, TBD-17 (HC S104A).
T8 construct: anti-TROP2 Fab, CDR3 HC alanine mutant
The assay is described as follows: competition ELISA, Fab on captured TROP2.

The target of assay [15] is T9, TBD-6 (LC I93A).
T9 construct: anti-TROP2 Fab, CDR3 LC alanine mutant
The assay is described as follows: competition ELISA, Fab on captured TROP2.

The target in assay [16] is T10, TBD-1 wt (anti-TROP2 Fab, hRS7).
T10 construct: non-mutated Fab
The assay is described as follows: competition ELISA, Fab on captured TROP2.

Assay [17] concerns the target T11, TBD-11 (HC R98A).
T11 construct: anti-TROP2 Fab, CDR3 HC alanine mutant
In words: competition ELISA, Fab on captured TROP2.

In assay [18] the target is T12, TBD-22 (HC D109A).
T12 construct: anti-TROP2 Fab, CDR3 HC alanine mutant
The assay is described as follows: competition ELISA, Fab on captured TROP2.

In patent publication US20230357429A1 (JANUX THERAPEUTICS, published 2023) one finds IC50 data, which are given here for 18 molecules.

Read-outs that look alike come from different tables or passages of the source. Where no end group is shown, it is not given here.

In the case of VDFCALYHWPICYQ (cysteine pairing not given here; also: biotinylated, site not given here) [Peptide-43], the half-maximal inhibitory concentration (IC50) (in general, the concentration that gives 50% inhibition) in the assay with TBD-1 wt [1] is 300 nM; with TBD-22 (HC D109A) [2], 50 nM; with TBD-17 (HC S104A) [3], 560 nM; with TBD-6 (LC I93A) [4] it was 440 nM; with TBD-11 (HC R98A) [5] it was 770 nM; with TBD-21 (HC F108A) [6], 690 nM.

In the case of VDFCELYRWPICNS (cysteine pairing not given here; also: biotinylated (site not given here)) [Peptide-13], the IC50 amounted to 1010 nM in the assay with TBD-1 wt [7]; 200 nM in the assay with TBD-22 (HC D109A) [8]; 2990 nM in the assay with TBD-17 (HC S104A) [9]; 970 nM with TBD-6 (LC I93A) [10]; 2680 nM with TBD-11 (HC R98A) [11]; 3200 nM in the assay with TBD-21 (HC F108A) [12].

IDFCLIYNWPVCDT (cysteine pairing not given here; also: biotinylated, site not given here) [Peptide-6]: the IC50 turned out to be 90 nM with TBD-22 (HC D109A) [8]; 3090 nM with TBD-17 (HC S104A) [9]; 1860 nM in the assay with TBD-6 (LC I93A) [10]; 8840 nM with TBD-11 (HC R98A) [11]; 7940 nM with TBD-21 (HC F108A) [12].

As to IDFCLLYDWPICGR (cysteine pairing not given here; also: biotinylated (site not given here)) [Peptide-17], the IC50 is 430 nM with TBD-1 wt [7]; 70 nM with TBD-22 (HC D109A) [8]; 2070 nM with TBD-17 (HC S104A) [9]; 760 nM with TBD-6 (LC I93A) [10]; 1950 nM with TBD-11 (HC R98A) [11]; 2940 nM with TBD-21 (HC F108A) [12].

In the case of IDFCAVYKWPVCQV (cysteine pairing not given here; also: biotinylated (site not given here)) [Peptide-2], the IC50 with TBD-1 wt [7] came to 2230 nM; in the assay with TBD-22 (HC D109A) [8], 160 nM; in the assay with TBD-17 (HC S104A) [9], 2080 nM; with TBD-6 (LC I93A) [10] it was 1100 nM; in the assay with TBD-11 (HC R98A) [11], 5850 nM; with TBD-21 (HC F108A) [12], 5880 nM.

As to PDFCAVYRWPICYQ (cysteine pairing not given here; also: biotinylated (site not given here)) [Peptide-12], the IC50 in the assay with TBD-1 wt [7] was determined as 460 nM; with TBD-22 (HC D109A) [8], 70 nM; with TBD-17 (HC S104A) [9], 2230 nM; with TBD-6 (LC I93A) [10], 1460 nM; with TBD-11 (HC R98A) [11] it was 850 nM; in the assay with TBD-21 (HC F108A) [12], 2240 nM.

Turning to PDFCYMYGWPICDS (cysteine pairing not given here; also: biotinylated, site not given here) [Peptide-32], the IC50 stood at 4940 nM in the assay with TBD-1 wt [1]; 330 nM with TBD-22 (HC D109A) [2]; 9440 nM with TBD-17 (HC S104A) [3]; 3290 nM with TBD-6 (LC I93A) [4]; 9930 nM with TBD-11 (HC R98A) [5]; 13200 nM with TBD-21 (HC F108A) [6].

For MDFCQIYDWPICRL (cysteine pairing not given here; also: biotinylated (site not given here)) [Peptide-18], the IC50 came out at 1270 nM with TBD-1 wt [7]; 350 nM with TBD-22 (HC D109A) [8]; 7080 nM in the assay with TBD-17 (HC S104A) [9]; 6110 nM with TBD-6 (LC I93A) [10]; 3960 nM with TBD-11 (HC R98A) [11]; 7560 nM with TBD-21 (HC F108A) [12].

Consider VDFCKLYNWPVCQT (cysteine pairing not given here; also: biotinylated, site not given here) [Peptide-5], for which the IC50 is 1590 nM with TBD-1 wt [7]; 100 nM with TBD-22 (HC D109A) [8]; 1790 nM with TBD-17 (HC S104A) [9]; 1050 nM with TBD-6 (LC I93A) [10]; 7230 nM in the assay with TBD-11 (HC R98A) [11]; 7160 nM with TBD-21 (HC F108A) [12].

Consider VDFCALYHWPVCGL (mask peptide for the TROP2 Fab) [Peptide-61], for which the IC50 with TBD-21 (HC F108A) [13] came out at 7750 nM; with TBD-17 (HC S104A) [14], 1830 nM; in the assay with TBD-6 (LC I93A) [15], 1190 nM; in [16], 1830 nM; in the assay with TBD-11 (HC R98A) [17] it was 12200 nM; with TBD-22 (HC D109A) [18] it was 260 nM.

Take IDFCAVYKWPVCQV (cysteine pairing not given here; also: biotinylated, site not given here) [Peptide-62]: the IC50 came out at 1470 nM in the assay with TBD-1 wt [1]; 80 nM with TBD-22 (HC D109A) [2]; 1420 nM with TBD-17 (HC S104A) [3]; 550 nM in the assay with TBD-6 (LC I93A) [4]; 4870 nM with TBD-11 (HC R98A) [5]; 3010 nM with TBD-21 (HC F108A) [6].

As for SYLVCVKNVYCWTA (cysteine pairing not given here; also: biotinylated, site not given here) [Peptide-29], the IC50 came to 920 nM with TBD-1 wt [7]; 33600 nM with TBD-22 (HC D109A) [8]; 1110 nM with TBD-17 (HC S104A) [9]; 800 nM with TBD-6 (LC I93A) [10]; 9170 nM with TBD-11 (HC R98A) [11]; 1490 nM with TBD-21 (HC F108A) [12].

As to VDFCKIYAWPICGS (cysteine pairing not given here; also: biotinylated, site not given here) [Peptide-4], the IC50 with TBD-1 wt [7] came out at 460 nM; with TBD-22 (HC D109A) [8], 130 nM; in the assay with TBD-17 (HC S104A) [9], 2040 nM; in the assay with TBD-6 (LC I93A) [10], 400 nM; with TBD-11 (HC R98A) [11] it was 3240 nM; with TBD-21 (HC F108A) [12], 3300 nM.

For the molecule LDFCKIYDWPICHL (cysteine pairing not given here; also: biotinylated (site not given here)) [Peptide-14], the IC50 in the assay with TBD-1 wt [7] was found to be 2190 nM; with TBD-22 (HC D109A) [8], 190 nM; with TBD-17 (HC S104A) [9], 5720 nM; in the assay with TBD-6 (LC I93A) [10], 1540 nM; with TBD-11 (HC R98A) [11] it was 3420 nM; in the assay with TBD-21 (HC F108A) [12], 6920 nM.

For IDFCAMYQWPICDT (cysteine pairing not given here; also: biotinylated (site not given here)) [Peptide-1], the IC50 in the assay with TBD-1 wt [7] was 780 nM; in the assay with TBD-22 (HC D109A) [8], 70 nM; with TBD-17 (HC S104A) [9], 1020 nM; in the assay with TBD-6 (LC I93A) [10] it was 350 nM; in the assay with TBD-11 (HC R98A) [11], 2490 nM; in the assay with TBD-21 (HC F108A) [12], 2890 nM.

Turning to IDFCAMYHWPICDT (cysteine pairing not given here; also: biotinylated, site not given here) [Peptide-42], the IC50 with TBD-1 wt [1] stood at 300 nM; with TBD-22 (HC D109A) [2] it was 60 nM; with TBD-17 (HC S104A) [3], 590 nM; with TBD-6 (LC I93A) [4], 220 nM; with TBD-11 (HC R98A) [5] it was 1210 nM; in the assay with TBD-21 (HC F108A) [6], 940 nM.

On to IDFCAIYQWPVCRS (cysteine pairing not given here; also: biotinylated (site not given here)) [Peptide-10], for which the IC50 with TBD-1 wt [7] was 1220 nM; in the assay with TBD-22 (HC D109A) [8], 60 nM; with TBD-17 (HC S104A) [9] it was 1520 nM; in the assay with TBD-6 (LC I93A) [10], 620 nM; with TBD-11 (HC R98A) [11], 4040 nM; with TBD-21 (HC F108A) [12], 2900 nM.

For the molecule PDFCYMYNWPVCVT (cysteine pairing not given here; also: biotinylated, site not given here) [Peptide-33], the IC50 in the assay with TBD-1 wt [1] was 5600 nM; with TBD-22 (HC D109A) [2], 330 nM; in the assay with TBD-17 (HC S104A) [3], 6010 nM; with TBD-6 (LC I93A) [4], 2160 nM; in the assay with TBD-11 (HC R98A) [5], 18000 nM; with TBD-21 (HC F108A) [6], 15700 nM.
